Test results reported in article PMC3507856, “Two glutamic acid residues in the DNA-binding domain are engaged in the release of STAT1 dimers from DNA” (BMC Cell Biology, 2012).
Where “and” joins values, the source holds several entries; their conditions need not be identical. Equal values may be shown once.

T1: endogenous (native) STAT1 of HeLa cells (human (endogenous in HeLa)), P42224
T1 chain: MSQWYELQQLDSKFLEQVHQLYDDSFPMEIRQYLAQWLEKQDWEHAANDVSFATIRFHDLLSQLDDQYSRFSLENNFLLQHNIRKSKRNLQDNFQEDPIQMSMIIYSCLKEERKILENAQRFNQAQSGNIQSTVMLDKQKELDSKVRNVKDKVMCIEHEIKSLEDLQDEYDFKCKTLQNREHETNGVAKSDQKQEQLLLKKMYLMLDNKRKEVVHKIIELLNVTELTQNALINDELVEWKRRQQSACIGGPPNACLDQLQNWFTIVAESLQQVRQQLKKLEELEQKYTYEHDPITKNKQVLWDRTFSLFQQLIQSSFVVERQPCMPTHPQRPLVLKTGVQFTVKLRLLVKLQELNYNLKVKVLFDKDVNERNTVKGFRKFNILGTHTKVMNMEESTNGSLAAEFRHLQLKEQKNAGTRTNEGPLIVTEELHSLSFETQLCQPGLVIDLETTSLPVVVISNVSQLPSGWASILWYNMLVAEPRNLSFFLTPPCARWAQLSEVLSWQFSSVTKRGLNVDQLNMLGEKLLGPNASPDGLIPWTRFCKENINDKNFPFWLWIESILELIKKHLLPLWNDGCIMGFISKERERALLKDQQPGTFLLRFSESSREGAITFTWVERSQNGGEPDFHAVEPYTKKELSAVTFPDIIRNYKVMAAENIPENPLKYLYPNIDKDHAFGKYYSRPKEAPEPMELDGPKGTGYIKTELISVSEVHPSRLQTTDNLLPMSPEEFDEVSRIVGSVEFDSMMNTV


How the values were obtained:
[1] = target: T1, endogenous (native) STAT1 of HeLa cells …; test: native gel or EMSA; whole cell lysates of HeLa cells (IFNγ 45 min, then staurosporine for the durations indicated) incubated in vitro with 32P-labelled M67 DNA (single high-affinity GAS site); STAT1 dimers seen as DNA-bound complexes on a 4% acrylamide gel at 4°C; homo- and heterodimers told apart by mobility; conditions: remark: other sources report otherwise
[2] = target: the molecule itself; test: as above
[3] = target: the molecule itself; test: native gel or EMSA; extracts of IFNγ-stimulated U3A cells incubated in vitro with 32P-labelled DNA containing a tandem GAS site; unchallenged or challenged for 30 min with a 750-fold molar excess of a single unlabelled GAS site (M67); dimeric and tetrameric STAT1 seen as DNA-bound complexes

Row | Binder | stoichiometry N [2] | stoichiometry N [3] | also measured
1 | endogenous (native) STAT1 of HeLa cells, P42224 1-750 (natural protein, here or on the partner: tyrosine-phosphorylated (phospho-Tyr701) after stimulation of cells with IFNγ; tyrosine-phosphorylated (phospho-Tyr701) after stimulation of cells with IFNγ) MSQWYELQQLDSKFLEQVHQLYDDSFPMEIRQYLAQWLEKQDWEHAANDVSFATIRFHDLLSQLDDQYSRFSLENNFLLQHNIRKSKRNLQDNFQEDPIQMSMIIYSCLKEERKILENAQRFNQAQSGNIQSTVMLDKQKELDSKVRNVKDKVMCIEHEIKSLEDLQDEYDFKCKTLQNREHETNGVAKSDQKQEQLLLKKMYLMLDNKRKEVVHKIIELLNVTELTQNALINDELVEWKRRQQSACIGGPPNACLDQLQNWFTIVAESLQQVRQQLKKLEELEQKYTYEHDPITKNKQVLWDRTFSLFQQLIQSSFVVERQPCMPTHPQRPLVLKTGVQFTVKLRLLVKLQELNYNLKVKVLFDKDVNERNTVKGFRKFNILGTHTKVMNMEESTNGSLAAEFRHLQLKEQKNAGTRTNEGPLIVTEELHSLSFETQLCQPGLVIDLETTSLPVVVISNVSQLPSGWASILWYNMLVAEPRNLSFFLTPPCARWAQLSEVLSWQFSSVTKRGLNVDQLNMLGEKLLGPNASPDGLIPWTRFCKENINDKNFPFWLWIESILELIKKHLLPLWNDGCIMGFISKERERALLKDQQPGTFLLRFSESSREGAITFTWVERSQNGGEPDFHAVEPYTKKELSAVTFPDIIRNYKVMAAENIPENPLKYLYPNIDKDHAFGKYYSRPKEAPEPMELDGPKGTGYIKTELISVSEVHPSRLQTTDNLLPMSPEEFDEVSRIVGSVEFDSMMNTV |  |  | stoichiometry N [1]: 2
2 | STAT1-WT-GFP (wild-type human STAT1 fused to green fluorescent protein) (natural protein, UniProt P42224 1-746, looked up, tyrosine-phosphorylated (phospho-Tyr701) after stimulation of cells with IFNγ, also called STAT1-GFP; GFP-tagged wild-type STAT1; source: HeLa cells, transfected (pEGFP-N1-STAT1), IFNγ-stimulated, in whole cell lysate; not shown: GFP, C-terminal, kept) MSQWYELQQLDSKFLEQVHQLYDDSFPMEIRQYLAQWLEKQDWEHAANDVSFATIRFHDLLSQLDDQYSRFSLENNFLLQHNIRKSKRNLQDNFQEDPIQMSMIIYSCLKEERKILENAQRFNQAQSGNIQSTVMLDKQKELDSKVRNVKDKVMCIEHEIKSLEDLQDEYDFKCKTLQNREHETNGVAKSDQKQEQLLLKKMYLMLDNKRKEVVHKIIELLNVTELTQNALINDELVEWKRRQQSACIGGPPNACLDQLQNWFTIVAESLQQVRQQLKKLEELEQKYTYEHDPITKNKQVLWDRTFSLFQQLIQSSFVVERQPCMPTHPQRPLVLKTGVQFTVKLRLLVKLQELNYNLKVKVLFDKDVNERNTVKGFRKFNILGTHTKVMNMEESTNGSLAAEFRHLQLKEQKNAGTRTNEGPLIVTEELHSLSFETQLCQPGLVIDLETTSLPVVVISNVSQLPSGWASILWYNMLVAEPRNLSFFLTPPCARWAQLSEVLSWQFSSVTKRGLNVDQLNMLGEKLLGPNASPDGLIPWTRFCKENINDKNFPFWLWIESILELIKKHLLPLWNDGCIMGFISKERERALLKDQQPGTFLLRFSESSREGAITFTWVERSQNGGEPDFHAVEPYTKKELSAVTFPDIIRNYKVMAAENIPENPLKYLYPNIDKDHAFGKYYSRPKEAPEPMELDGPKGTGYIKTELISVSEVHPSRLQTTDNLLPMSPEEFDEVSRIVGSVEFDSM | 2 |  | 
3 | STAT1-E411A expressed in STAT1-negative U3A cells (natural protein, human, UniProt P42224 1-746, looked up, tyrosine-phosphorylated after stimulation of cells with IFNγ, STAT1, human; glutamic acid 411 changed to alanine; also called E411A mutant; mutant STAT1; source: U3A cells, transfected, IFNγ-stimulated, in cell extract) MSQWYELQQLDSKFLEQVHQLYDDSFPMEIRQYLAQWLEKQDWEHAANDVSFATIRFHDLLSQLDDQYSRFSLENNFLLQHNIRKSKRNLQDNFQEDPIQMSMIIYSCLKEERKILENAQRFNQAQSGNIQSTVMLDKQKELDSKVRNVKDKVMCIEHEIKSLEDLQDEYDFKCKTLQNREHETNGVAKSDQKQEQLLLKKMYLMLDNKRKEVVHKIIELLNVTELTQNALINDELVEWKRRQQSACIGGPPNACLDQLQNWFTIVAESLQQVRQQLKKLEELEQKYTYEHDPITKNKQVLWDRTFSLFQQLIQSSFVVERQPCMPTHPQRPLVLKTGVQFTVKLRLLVKLQELNYNLKVKVLFDKDVNERNTVKGFRKFNILGTHTKVMNMEESTNGSLAAEFRHLQLKAQKNAGTRTNEGPLIVTEELHSLSFETQLCQPGLVIDLETTSLPVVVISNVSQLPSGWASILWYNMLVAEPRNLSFFLTPPCARWAQLSEVLSWQFSSVTKRGLNVDQLNMLGEKLLGPNASPDGLIPWTRFCKENINDKNFPFWLWIESILELIKKHLLPLWNDGCIMGFISKERERALLKDQQPGTFLLRFSESSREGAITFTWVERSQNGGEPDFHAVEPYTKKELSAVTFPDIIRNYKVMAAENIPENPLKYLYPNIDKDHAFGKYYSRPKEAPEPMELDGPKGTGYIKTELISVSEVHPSRLQTTDNLLPMSPEEFDEVSRIVGSVEFDSM |  | 2 and 4 | 
4 | wild-type STAT1 expressed in STAT1-negative U3A cells (natural protein, human, UniProt P42224 1-746, looked up, tyrosine-phosphorylated after stimulation of cells with IFNγ, STAT1, human; also called STAT1-WT; source: U3A cells, transfected, IFNγ-stimulated, in cell extract) MSQWYELQQLDSKFLEQVHQLYDDSFPMEIRQYLAQWLEKQDWEHAANDVSFATIRFHDLLSQLDDQYSRFSLENNFLLQHNIRKSKRNLQDNFQEDPIQMSMIIYSCLKEERKILENAQRFNQAQSGNIQSTVMLDKQKELDSKVRNVKDKVMCIEHEIKSLEDLQDEYDFKCKTLQNREHETNGVAKSDQKQEQLLLKKMYLMLDNKRKEVVHKIIELLNVTELTQNALINDELVEWKRRQQSACIGGPPNACLDQLQNWFTIVAESLQQVRQQLKKLEELEQKYTYEHDPITKNKQVLWDRTFSLFQQLIQSSFVVERQPCMPTHPQRPLVLKTGVQFTVKLRLLVKLQELNYNLKVKVLFDKDVNERNTVKGFRKFNILGTHTKVMNMEESTNGSLAAEFRHLQLKEQKNAGTRTNEGPLIVTEELHSLSFETQLCQPGLVIDLETTSLPVVVISNVSQLPSGWASILWYNMLVAEPRNLSFFLTPPCARWAQLSEVLSWQFSSVTKRGLNVDQLNMLGEKLLGPNASPDGLIPWTRFCKENINDKNFPFWLWIESILELIKKHLLPLWNDGCIMGFISKERERALLKDQQPGTFLLRFSESSREGAITFTWVERSQNGGEPDFHAVEPYTKKELSAVTFPDIIRNYKVMAAENIPENPLKYLYPNIDKDHAFGKYYSRPKEAPEPMELDGPKGTGYIKTELISVSEVHPSRLQTTDNLLPMSPEEFDEVSRIVGSVEFDSM |  | 2 and 4 | 
5 | STAT1-E411A-GFP (natural protein, human, UniProt P42224 1-746, looked up, tyrosine-phosphorylated (phospho-Tyr701) after stimulation of cells with IFNγ, STAT1, human; also called E411 mutant; source: HeLa cells, transfected (pEGFP-N1-STAT1 with point mutation), IFNγ-stimulated, in whole cell lysate; not shown: GFP, C-terminal, kept) MSQWYELQQLDSKFLEQVHQLYDDSFPMEIRQYLAQWLEKQDWEHAANDVSFATIRFHDLLSQLDDQYSRFSLENNFLLQHNIRKSKRNLQDNFQEDPIQMSMIIYSCLKEERKILENAQRFNQAQSGNIQSTVMLDKQKELDSKVRNVKDKVMCIEHEIKSLEDLQDEYDFKCKTLQNREHETNGVAKSDQKQEQLLLKKMYLMLDNKRKEVVHKIIELLNVTELTQNALINDELVEWKRRQQSACIGGPPNACLDQLQNWFTIVAESLQQVRQQLKKLEELEQKYTYEHDPITKNKQVLWDRTFSLFQQLIQSSFVVERQPCMPTHPQRPLVLKTGVQFTVKLRLLVKLQELNYNLKVKVLFDKDVNERNTVKGFRKFNILGTHTKVMNMEESTNGSLAAEFRHLQLKAQKNAGTRTNEGPLIVTEELHSLSFETQLCQPGLVIDLETTSLPVVVISNVSQLPSGWASILWYNMLVAEPRNLSFFLTPPCARWAQLSEVLSWQFSSVTKRGLNVDQLNMLGEKLLGPNASPDGLIPWTRFCKENINDKNFPFWLWIESILELIKKHLLPLWNDGCIMGFISKERERALLKDQQPGTFLLRFSESSREGAITFTWVERSQNGGEPDFHAVEPYTKKELSAVTFPDIIRNYKVMAAENIPENPLKYLYPNIDKDHAFGKYYSRPKEAPEPMELDGPKGTGYIKTELISVSEVHPSRLQTTDNLLPMSPEEFDEVSRIVGSVEFDSM | 2 |  | 
